Test results reported in patent US20060024296A1 (AbbVie / Abbott, published 2006).

Experiments:
[1] = target: T1, human CS1-Fc fusion protein (human, UniProt Q9NQ25 23-226, limits assumed); test: SPR BIAcore 2000
T1 construct: analyte of the BIAcore experiment; not shown: Fc part

[2] = target: T2, human CS1 (native, on K562 and Daudi cells) (human, UniProt Q9NQ25 23-335); test: FACS, K562 cells
T2 construct: K562 and Daudi cells 'are known to express native CS1'; also called SLAMF7; CRACC

[3] = target: T2, human CS1 (native, on K562 and Daudi …); test: FACS, Daudi cells
[4] = target: T3, CS1 ECD-myc-GPI fusion protein on NSO cells (human, UniProt Q9NQ25 23-226, glycosyl phosphatidylinositol linkage for cell surface expression); test: cell-based or functional assay
[5] = target: T3, CS1 ECD-myc-GPI fusion protein on NSO …; test: FACS, NSO-CS1 cells
NSO-FcRn = target: T4, NSO-FcRn; test: FACS, NSO-FcRn cells
T4 construct: negative control transfectant; also called FcRn on NSO cells

[6] = target: T5, huCS1 (human CS1 extracellular domain, amino acids 1-227, fused to human gamma 1 Fc) (human, UniProt P01857-1 99-330 = IgG part); test: sandwich ELISA, Fc-captured construct
T5 construct: domain: human Fc tag; secreted protein in 293/T supernatant; also called human CS1-Fc

[7] = target: T6, mu25/hu75 chimeric CS1-Fc (human/mouse chimera; human); test: sandwich ELISA, Fc-captured construct
T6 construct: entry starts with the signal peptide; not shown: human gamma 1 Fc tag of the NIF Fc vector

[8] = target: T7, hu75/mu25 chimeric CS1-Fc (human/mouse chimera; human); test: sandwich ELISA, Fc-captured construct
T7 construct: entry starts with the signal peptide; not shown: human gamma 1 Fc tag of the NIF Fc vector
T7 chain: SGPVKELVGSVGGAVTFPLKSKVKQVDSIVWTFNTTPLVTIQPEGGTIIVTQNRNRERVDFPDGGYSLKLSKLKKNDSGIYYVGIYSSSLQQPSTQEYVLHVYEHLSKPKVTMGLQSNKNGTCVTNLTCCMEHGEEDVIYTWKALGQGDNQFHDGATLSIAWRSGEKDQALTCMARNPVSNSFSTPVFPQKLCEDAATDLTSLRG

[9] = target: T1, human CS1-Fc fusion protein; test: SPR BIAcore 2000, antibody immobilised, CS1-Fc analyte, bivalent analyte model
[10] = target: T8, CS1 ECD-Fcγ3 fusion protein (human, UniProt Q9NQ25 23-226); test: direct binding ELISA, coated human CS1-human Fcγ3
T8 construct: also called CS1-G3; CS1-γ3; not shown: constant region of IgG3 (human Fc-γ3)

Binder	fold higher binding affinity than Luc34.1 [1]	fold higher binding affinity than Luc 63.2 [1]	FACS (MFI) [2]	FACS (MFI) [3]	cytotoxicity of the target cells (ADCC, LDH release, PBMC effectors 20:1) [4]	FACS (MFI) [5]	FACS (MFI) (NSO-FcRn)	binding result [6]	binding result [7]	binding result [8]	Kd [9]	koff [9]	kon [9]	EC50 [10]
Luc90 (antibody, IgG2b, V domains shown, mouse monoclonal, IgG2b; subclone Luc90.H1 used in BIAcore; also called Luc90-H1, D9; Luc90.H1) VH: QVQLQQPGAELVRPGASVKLSCKASGYSFTTYWMNWVKQRPGQGLEWIGMIHPSDSETRLNQKFKDKATLTVDKSSSTAYMQLSSPTSEDSAVYYCARSTMIATRAMDYWGQGTSVTVSS VL: DIVMTQSQKSMSTSVGDRVSITCKASQDVITGVAWYQQKPGQSPKLLIYSASYRYTGVPDRFTGSGSGTDFTFTISNVQAEDLAVYYCQQHYSTPLTFGAGTKLELK	28 fold	5.5 fold	9.7 MFI	10.1 MFI	~50%	237 MFI	< 5 MFI	binds	no binding (tested: 2 ug/ml)	binds	6.29 nM	0.000281 s⁻¹	45600 M⁻¹ s⁻¹	–
Luc63 (antibody, IgG2a, V domains shown, mouse monoclonal, IgG2a; also called Lu 63; Luc63-1) VH: EVKLLESGGGLVQPGGSLKLSCAASGFDFSRYWMSWVRQAPGKGLEWIGEINPDSSTINYTPSLKDKFIISRDNAKNTLYLQMSKVRSEDTALYYCARPDGNYWYFDVWGAGTTVTVSS VL: DIVMTQSHKFMSTSVGDRVSITCKASQDVGIAVAWYQQKPGQSPKLLIYWASTRHTGVPDRFTGSGSGTDFTLTISNVQSEDLADYFCQQYSSYPYTFGGGTKLEIK	–	–	15.8 MFI	12.7 MFI	–	214 MFI	< 5 MFI	–	–	–	34.6 nM	–	–	0.0661 µg/mL
Luc34 (antibody, IgG1, V domains shown, subclone Luc34.1 used in BIAcore; also called Luc34-1; Luc34-3) VH: QVQLQQSGAELARPGASVKLSCKASGYTFTSYWMQWVKQRPGQGLEWIGAIYPGDGDTRYTQKFKGKATLTADKSSSTAYMQLSSLASEDSAVYYCARGKVYYGSNPFAYWGQGTLVTVSA VL: DIQMTQSSSYLSVSLGGRVTITCKASDHINNWLAWYQQKPGNAPRLLISGATSLETGVPSRFSGSGSGKDYTLSITSLQTEDVATYYCQQYWSTPWTFGGGTKLEIK	–	–	26.2 MFI	10.3 MFI	–	127 MFI	< 5 MFI	binds	no binding (tested: 2 ug/ml)	binds	173 nM	0.00127 s⁻¹	7480 M⁻¹ s⁻¹	–
HuLuc63 (antibody, human IgG1, V domains shown, human IgG1/κ, transiently expressed in 293-H cells; also called humanized Luc63; HuLuc63 IgG1/κ antibody) VH: EVQLVESGGGLVQPGGSLRLSCAASGFDFSRYWMSWVRQAPGKGLEWIGEINPDSSTINYAPSLKDKFIISRDNAKNSLYLQMNSLRAEDTAVYYCARPDGNYWYFDVWGQGTLVTVSS VL: DIQMTQSPSSLSASVGDRVTITCKASQDVGIAVAWYQQKPGKVPKLLIYWASTRHTGVPDRFSGSGSGTDFTLTISSLQPEDVATYYCQQYSSYPYTFGQGTKVEIK	–	–	–	–	–	–	–	–	–	–	–	–	–	0.0701 µg/mL
Luc69 (antibody, V domains shown, mouse monoclonal) VH: QVQLQQSGPELVKPGASVKISCKASGYAFSNSWMNWVKQRPGQGLEWIGRIYPGDGDTKSNGKFKGKATLTADKSSRAAYMQLSSLTSVDSAVYFCARSTMIMTGAMDYWGQGTSVTVSS VL: DIVMTQSHKFMSTSVGDRVIITCKASQDVSTAVAWYQQKPGQSPKLLIYSASFRYTGVPDRFTGSGSGTDFTFTVSSVQAEDLAVYYCQQHYSTPPYTFGGGTKLEIK	–	–	–	–	–	–	–	binds	no binding (tested: 2 ug/ml)	binds	–	–	–	–
